Test [1] concerns the target T1, BRD4-ET domain (for ITC) (UniProt O60885 600-678). The experiment in a line: ITC.
Test [2] deals with TurboID-BRD4-ET (UniProt O60885 600-678). The experiment in a line: proximity labelling.
In test [3] the target is T1, BRD4-ET domain (for ITC). The experiment in a line: ITC. This is another data set of the same source. (In ITC the heat of successive injections is recorded.)
Test [4] concerns the target GST-BRD3^562-640 (UniProt Q15059 562-640). The experiment in a line: pull-down.
Test [5] concerns the target GST-BRD2^632-710 (UniProt P25440 632-710). Briefly: pull-down.
The target in test [6] is GST-BRD4^600-678 (UniProt O60885 600-678). Briefly: pull-down.

The Kd is a measure of binding affinity in units of concentration. A higher Kd goes with a looser complex.

Like-named read-outs stand apart in the source and are kept apart here.

Sequence of GST-BRD2^632-710 (P25440 632-710): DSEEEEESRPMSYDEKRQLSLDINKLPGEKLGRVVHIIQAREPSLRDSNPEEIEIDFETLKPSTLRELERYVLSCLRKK
Sequence of GST-BRD3^562-640 (Q15059 562-640): as the sequence (P25440 632-710) above, with S8G, R9L, K25R, A40S, E51D, S63T, L73K, R77Q counted along it

B1: His6MBP-ASXL2^582-634 (domain or fragment)
chain: EKRPRVTENRQHQQPFQVSPQPFLNRGDRIQVRKVPPLKIPVSRISPMPFHPS
In turn, B1 came in with a Kd in test [1] of 1.1 µM.

B2: ASXL1^Y591X (domain or fragment)
chain: MKDKQKKKKERTWAEAARLVLENYSDAPMTPKQILQVIEAEGLKEMRSGTSPLACLNAMLHSNSRGGEGLFYKLPGRISLFTLKKDALQWSRHPATVEGEEPEDTADVESCGSNEASTVSGENDVSLDETSSNASCSTESQSRPLSNPRDSYRASSQANKQKKKTGVMLPRVVLTPLKVNGAHVESASGFSGCHADGESGSPSSSSSGSLALGSAAIRGQAEVTQDPAPLLRGFRKPATGQMKRNRGEEIDFETPGSILVNTNLRALINSRTFHALPSHFQQQLLFLLPEVDRQVGTDGLLRLSSSALNNEFFTHAAQSWRERLADGEFTHEMQVRIRQEMEKEKKVEQWKEKFFEDYYGQKLGLTKEESLQQNVGQEEAEIKSGLCVPGESVRIQRGPATRQRDGHFKKRSRPDLRTRARRNLYKKQESEQAGVAKDAKSVASDVPLYKDGEAKTDPAGLSSPHLPGTSSAAPDLEGPEFPVESVASRIQAEPDNLARASASPDRIPSLPQETVDQEPKDQKRKSFEQAASASFPEKKPRLEDRQSFRNTIESVHTEKPQPTKEEPKVPPIRIQLSRIKPPWVVKGQPT
Consider B2, for which, in test [2], the “fold enhancement of BRD4-ET binding over full-length ASXL1” value worked out at 3.5 fold and the “fold enhancement of ET-domain binding over full-length ASXL1, peptide […]” value is approximately 3 fold.

B3: His6MBP-ASXL3^977-1027 (domain or fragment)
chain: EKRARIEDDQSTRNISSSSPPEKEQPPREEPRVPPLKIQLSKIGPPFIIKS
In test [1], B3 returned a Kd of 2 µM.
PKVPPIRIQLSRIKPPWVVKG (domain or fragment) [His6MBP-fused ASXL1^567-587] showed a Kd in test [1] of 1.36 µM. This Kd and that of the molecule before are within 1.5-fold of each other.

B4: His6MBP-ASXL1^537-587 (domain or fragment)
chain: EKKPRLEDRQSFRNTIESVHTEKPQPTKEEPKVPPIRIQLSRIKPPWVVKG
On to B4, for which the Kd in test [3] came out at 0.535 µM; in test [1] it was 1.3 µM. Also, the binding result in test [4] and in test [5] was “binds” each time.

B5: His6MBP-ASXL1^537-587 with the motif arginine mutated to alanine (domain or fragment)
chain: EKKPRLEDRQSFRNTIESVHTEKPQPTKEEPKVPPIAIQLSRIKPPWVVKG
Regarding B5, in test [6], the binding result is given as “binds”.

B6: His6MBP-ASXL1^537-587 Q575A (domain or fragment)
chain: EKKPRLEDRQSFRNTIESVHTEKPQPTKEEPKVPPIRIALSRIKPPWVVKG
In the case of B6, the binding result in test [6] is “binds”.
